Read-outs that look alike come from different tables or passages of the source.
Experiments:
Assay in all cases: X-ray crystallography
[1] = target: T1, VP1 RNA-dependent RNA polymerase (cVP1) (Simian rotavirus A SA11 (group A; …, UniProt O37061 1-1088)
T1 sequence: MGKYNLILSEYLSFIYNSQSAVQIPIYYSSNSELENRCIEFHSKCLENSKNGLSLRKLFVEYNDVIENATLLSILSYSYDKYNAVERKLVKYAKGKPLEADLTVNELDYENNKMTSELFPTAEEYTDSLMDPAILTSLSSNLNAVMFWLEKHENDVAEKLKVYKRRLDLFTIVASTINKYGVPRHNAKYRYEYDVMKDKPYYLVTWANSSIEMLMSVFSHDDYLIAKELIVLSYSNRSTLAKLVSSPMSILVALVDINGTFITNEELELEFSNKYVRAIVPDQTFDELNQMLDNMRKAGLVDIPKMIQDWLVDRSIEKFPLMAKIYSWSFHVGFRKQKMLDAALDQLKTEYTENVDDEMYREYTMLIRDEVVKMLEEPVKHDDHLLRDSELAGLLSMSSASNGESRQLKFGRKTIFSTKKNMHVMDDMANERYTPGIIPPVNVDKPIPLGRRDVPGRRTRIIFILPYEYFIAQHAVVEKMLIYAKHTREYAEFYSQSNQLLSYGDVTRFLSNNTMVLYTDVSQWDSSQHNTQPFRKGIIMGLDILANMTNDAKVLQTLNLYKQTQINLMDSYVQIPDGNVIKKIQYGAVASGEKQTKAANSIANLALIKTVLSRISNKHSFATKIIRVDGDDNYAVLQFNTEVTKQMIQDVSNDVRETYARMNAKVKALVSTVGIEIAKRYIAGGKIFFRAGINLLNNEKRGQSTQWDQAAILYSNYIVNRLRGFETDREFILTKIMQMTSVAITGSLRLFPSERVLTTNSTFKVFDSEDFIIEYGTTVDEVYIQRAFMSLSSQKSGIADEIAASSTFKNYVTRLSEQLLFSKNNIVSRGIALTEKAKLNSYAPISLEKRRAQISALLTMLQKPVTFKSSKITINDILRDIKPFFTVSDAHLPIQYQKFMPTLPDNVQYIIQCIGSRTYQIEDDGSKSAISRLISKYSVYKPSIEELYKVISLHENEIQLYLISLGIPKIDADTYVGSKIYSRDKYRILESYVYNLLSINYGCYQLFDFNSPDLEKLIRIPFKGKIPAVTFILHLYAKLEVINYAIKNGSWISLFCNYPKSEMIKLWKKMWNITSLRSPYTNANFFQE

[2] = target: T1, VP1 RNA-dependent RNA polymerase (cVP1); remark: listed apart in the source
[3] = target: T1, VP1 RNA-dependent RNA polymerase (cVP1); remark: listed apart in the source
[4] = target: T1, VP1 RNA-dependent RNA polymerase (cVP1); remark: listed apart in the source
[5] = target: T1, VP1 RNA-dependent RNA polymerase (cVP1); remark: listed apart in the source

B1: 3'CS- (ssRNA)
RNA: AAAAGCC
binding result [1]: binds

B2: 3'CS+ A-insertion (ssRNA)
RNA: UGUGAACC
binding result [2]: binds

B3: 5'CS+ (ssRNA)
RNA: GGCUUU
binding result [3]: binds

B4: 3'CS+ A3-deletion (ssRNA)
RNA: UGUGCC
binding result [4]: binds

B5: 3'CS+ wild type (ssRNA)
RNA: UGUGACC
binding result [5]: binds
